The values that follow come from article PMC10816394, “Radiosynthesis and Bioevaluation of ^99mTc-Labeled Isocyanide Ubiquicidin 29-41 Derivatives as Potential Agents for Bacterial Infection Imaging” (International Journal of Molecular Sciences, 2024).

Data set [1] is classed as physicochemical. Particulars: pH 7.4. The procedure:
The lipophilicities of the ^99mTc-labeled complexes were evaluated by the distribution coefficient. The method for determining the distribution coefficient was as follows: 0.1 mL of the radiolabeled complex (3.7 MBq) was mixed with 0.9 mL of phosphate buffer (0.025 mol/L, pH 7.4) and 1 mL of n-octanol in a 5 mL centrifuge tube. The mixture was shaken on a vortex mixer at room temperature for 3 min and centrifuged at 5000 r/min for 5 min. Aliquots of 0.1 mL of both n-octanol and PBS were collected, and the radioactivity was determined with a γ-counter. The distribution coefficient was calculated as follows: Log D = lg[(counts per minute in n-octanol/counts per minute in PBS)]. Each group of measurements was carried out five times in parallel. The final results are expressed as the log D ± SD.

A further data set concerns S. aureus-infected mice. Also noted: species or system female Kunming mice. The following applies: mouse, in vivo. The procedure: Bacterial infection mouse models were constructed as follows: S. aureus (ATCC 25923) was cultured in a liquid medium at 37 °C for approximately 24 h, washed with PBS (pH 7.4) and diluted to obtain a suspension of 1 × 10^8 CFU/mL. […] The mice were sacrificed with isoflurane anesthesia at 120 min postinjection. […] To evaluate the metabolic properties of [^99mTc]Tc-CN5UBI 29-41, biodistribution studies were carried out in mice infected with S. aureus at 30, 120 and 240 min.

No end group written: not given here.

Take “[^99mTc]Tc-CN9UBI 29-41: ^99mTc complex of ligand CN9UBI 29-41 with the [^99mTc]Tc(I)^+ core (TGRAKRRMQYNRR; also: CN9 chelator, position not given here, 99mTc complex with [99mTc]Tc(I)+ core; UniProt P62861 103-115, looked up, fragment)”: the “Log D ± SD, [^99mTc][Tc(Ⅰ)]^+ Core” value in data set [1] is on record as −2.52 ± 0.01. In the data set with S. aureus-infected mice, the Abscess/Blood ratio amounted to 0.69 ± 0.04 and the “Abscess/Muscle ratio (target-to-nontarget ratio)” value (“Abscess/Muscle ratio” for short) came to 2.62 ± 0.42.

For the substance “[^99mTc]TcN-CN5UBI 29-41: ^99mTc complex of ligand CN5UBI 29-41 with the [^99mTc][Tc(V)N]^2+ core (TGRAKRRMQYNRR; also: CN5 chelator, position not given here, 99mTc complex with [99mTc][Tc(V)N]2+ core; UniProt P62861 103-115, looked up, fragment)”, the “Log D ± SD, [^99mTc][Tc(Ⅴ)N]^2+ Core” value in data set [1] is reported as −2.71 ± 0.03. In addition, in the data set on S. aureus-infected mice, the Abscess/Blood ratio came to 0.69 ± 0.22 and the “Abscess/Muscle ratio” value is 2.10 ± 0.80.

In the case of “[^99mTc]Tc-CN6UBI 29-41: ^99mTc complex of ligand CN6UBI 29-41 with the [^99mTc]Tc(I)^+ core (TGRAKRRMQYNRR; also: CN6 chelator, position not given here, 99mTc(I) complex; UniProt P62861 103-115, looked up, fragment)”, the “Log D ± SD, [^99mTc][Tc(Ⅰ)]^+ Core” value in data set [1] is −2.62 ± 0.03. In the data set with S. aureus-infected mice, the Abscess/Blood ratio came out at 0.75 ± 0.10 and the “Abscess/Muscle ratio” value is recorded as 3.48 ± 0.70.

With “[^99mTc]Tc-CN8UBI 29-41: ^99mTc complex of ligand CN8UBI 29-41 with the [^99mTc]Tc(I)^+ core (TGRAKRRMQYNRR; also: CN8 chelator, position not given here, 99mTc complex with [99mTc]Tc(I)+ core; UniProt P62861 103-115, looked up, fragment)”, the “Log D ± SD, [^99mTc][Tc(Ⅰ)]^+ Core” value in data set [1] was −2.54 ± 0.01. Moreover, in the data set on S. aureus-infected mice, the Abscess/Blood ratio was found to be 0.66 ± 0.16 and the “Abscess/Muscle ratio” value was 2.64 ± 0.65.

For the substance “[^99mTc]Tc(CO)3-CN9UBI 29-41: ^99mTc complex of ligand CN9UBI 29-41 with the [^99mTc][Tc(I)(CO)3(H2O)3]^+ core (TGRAKRRMQYNRR; also: CN9 chelator, position not given here, 99mTc(CO)3 complex; UniProt P62861 103-115, looked up, fragment)”, in the data set on S. aureus-infected mice, the Abscess/Blood ratio amounted to 0.75 ± 0.12 and the “Abscess/Muscle ratio” value is reported as 2.60 ± 0.68.

As to “[^99mTc]TcN-CN7UBI 29-41: ^99mTc complex of ligand CN7UBI 29-41 with the [^99mTc][Tc(V)N]^2+ core (TGRAKRRMQYNRR; also: CN7 chelator, position not given here, 99mTc complex with [99mTc][Tc(V)N]2+ core; UniProt P62861 103-115, looked up, fragment)”, the “Log D ± SD, [^99mTc][Tc(Ⅴ)N]^2+ Core” value in data set [1] is −2.58 ± 0.04. In the data set on S. aureus-infected mice, the Abscess/Blood ratio is 0.58 ± 0.12 and the “Abscess/Muscle ratio” value was found to be 2.47 ± 0.47.

Turning to “[^99mTc]Tc(CO)3-CN6UBI 29-41: ^99mTc complex of ligand CN6UBI 29-41 with the [^99mTc][Tc(I)(CO)3(H2O)3]^+ core (TGRAKRRMQYNRR; also: CN6 chelator, position not given here, 99mTc(CO)3 complex; UniProt P62861 103-115, looked up, fragment)”, in the data set with S. aureus-infected mice, the Abscess/Blood ratio is reported as 0.73 ± 0.19 and the “Abscess/Muscle ratio” value was determined as 2.48 ± 0.45.

In the case of “[^99mTc]Tc-CN7UBI 29-41: ^99mTc complex of ligand CN7UBI 29-41 with the [^99mTc]Tc(I)^+ core (TGRAKRRMQYNRR; also: CN7 chelator, position not given here, 99mTc(I) complex; UniProt P62861 103-115, looked up, fragment)”, the “Log D ± SD, [^99mTc][Tc(Ⅰ)]^+ Core” value in data set [1] is −2.57 ± 0.03. In addition, in the data set with S. aureus-infected mice, the Abscess/Blood ratio was 0.56 ± 0.09 and the “Abscess/Muscle ratio” value came out at 2.52 ± 0.56.

As for “[^99mTc]TcN-CN8UBI 29-41: ^99mTc complex of ligand CN8UBI 29-41 with the [^99mTc][Tc(V)N]^2+ core (TGRAKRRMQYNRR; also: CN8 chelator, position not given here, 99mTc complex with [99mTc][Tc(V)N]2+ core; UniProt P62861 103-115, looked up, fragment)”, the “Log D ± SD, [^99mTc][Tc(Ⅴ)N]^2+ Core” value in data set [1] is reported as −2.55 ± 0.03. In the data set on S. aureus-infected mice, the Abscess/Blood ratio is reported as 0.72 ± 0.13 and the “Abscess/Muscle ratio” value came to 2.81 ± 0.55.

Take “[^99mTc]Tc(CO)3-CN5UBI 29-41: ^99mTc complex of ligand CN5UBI 29-41 with the [^99mTc][Tc(I)(CO)3(H2O)3]^+ core (TGRAKRRMQYNRR; also: CN5 chelator, position not given here, 99mTc(CO)3 complex; UniProt P62861 103-115, looked up, fragment)”: in the data set with S. aureus-infected mice, the Abscess/Blood ratio is listed as 0.67 ± 0.15 and the “Abscess/Muscle ratio” value is on record as 2.49 ± 0.65.

As to “[^99mTc]TcN-CN6UBI 29-41: ^99mTc complex of ligand CN6UBI 29-41 with the [^99mTc][Tc(V)N]^2+ core (TGRAKRRMQYNRR; also: CN6 chelator, position not given here, 99mTc complex with [99mTc][Tc(V)N]2+ core; UniProt P62861 103-115, looked up, fragment)”, the “Log D ± SD, [^99mTc][Tc(Ⅴ)N]^2+ Core” value in data set [1] is −2.65 ± 0.03. In the data set with S. aureus-infected mice, the Abscess/Blood ratio was determined as 0.70 ± 0.15 and the “Abscess/Muscle ratio” value turned out to be 3.32 ± 0.99.

Take “[^99mTc]Tc(CO)3-CN7UBI 29-41: ^99mTc complex of ligand CN7UBI 29-41 with the [^99mTc][Tc(I)(CO)3(H2O)3]^+ core (TGRAKRRMQYNRR; also: CN7 chelator, position not given here, 99mTc(CO)3 complex; UniProt P62861 103-115, looked up, fragment)”: in the data set on S. aureus-infected mice, the Abscess/Blood ratio turned out to be 0.69 ± 0.08 and the “Abscess/Muscle ratio” value is 2.43 ± 0.49.

Take “[^99mTc]TcN-CN9UBI 29-41: ^99mTc complex of ligand CN9UBI 29-41 with the [^99mTc][Tc(V)N]^2+ core (TGRAKRRMQYNRR; also: CN9 chelator, position not given here, 99mTc complex with [99mTc][Tc(V)N]2+ core; UniProt P62861 103-115, looked up, fragment)”: the “Log D ± SD, [^99mTc][Tc(Ⅴ)N]^2+ Core” value in data set [1] is −2.41 ± 0.03. In addition, in the data set on S. aureus-infected mice, the Abscess/Blood ratio is 0.70 ± 0.29 and the “Abscess/Muscle ratio” value was determined as 2.79 ± 0.82.

For the substance “[^99mTc]Tc(CO)3-CN8UBI 29-41: ^99mTc complex of ligand CN8UBI 29-41 with the [^99mTc][Tc(I)(CO)3(H2O)3]^+ core (TGRAKRRMQYNRR; also: CN8 chelator, position not given here, 99mTc(CO)3 complex; UniProt P62861 103-115, looked up, fragment)”, in the data set with S. aureus-infected mice, the Abscess/Blood ratio was found to be 0.64 ± 0.11 and the “Abscess/Muscle ratio” value is listed as 2.42 ± 0.37.
